We go through one protein from paper PMC7617739, “Seo1p, a high-affinity, plasma membrane transporter of the γ-Glu-met dipeptide in yeasts and fungi” (The Journal of Biological Chemistry, 2025).

As a reminder, the Km is the concentration of substrate that gives half-maximal velocity.

Substrate in the data set: CSCC[C@H](NC(=O)CC[C@H](N)C(=O)O)C(=O)O
In words: cells, lysate or membranes.

B1: Seo1p (Saccharomyces cerevisiae S288C) (protein)
chain: MYSIVKEIIVDPYKRLKWGFIPVKRQVEDLPDDLNSTEIVTISNSIQSHETAENFITTTSEKDQLHFETSSYSEHKDNVNVTRSYEYRDEADRPWWRFFDEQEYRINEKERSHNKWYSWFKQGTSFKEKKLLIKLDVLLAFYSCIAYWVKYLDTVNINNAYVSGMKEDLGFQGNDLVHTQVMYTVGNIIFQLPFLIYLNKLPLNYVLPSLDLCWSLLTVGAAYVNSVPHLKAIRFFIGAFEAPSYLAYQYLFGSFYKHDEMVRRSAFYYLGQYIGILSAGGIQSAVYSSLNGVNGLEGWRWNFIIDAIVSVVVGLIGFYSLPGDPYNCYSIFLTDDEIRLARKRLKENQTGKSDFETKVFDIKLWKTIFSDWKIYILTLWNIFCWNDSNVSSGAYLLWLKSLKRYSIPKLNQLSMITPGLGMVYLMLTGIIADKLHSRWFAIIFTQVFNIIGNSILAAWDVAEGAKWFAFMLQCFGWAMAPVLYSWQNDICRRDAQTRAITLVTMNIMAQSSTAWISVLVWKTEEAPRYLKGFTFTACSAFCLSIWTFVVLYFYKRDERNNAKKNGIVLYNSKHGVEKPTSKDVETLSVSDEK
For the protein B1, the Km was 48 µM.
